Measured values from the supplement of paper PMC12455559.
± gives the standard deviation of the averaged measurements.

How the values were obtained:
[1] = purified protein yield per well (BCA); higher = higher soluble expression
Method in brief: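 Each candidate enzyme was grown in E. coli C41(DE3) in a 2 mL autoinduction culture (100 µg/mL kanamycin; 2 h at 37 °C, then 40 h at 18 °C) and purified robotically via Ni-charged magnetic beads with SUMO protease cleavage. Purified protein yield per well was assessed using the Pierce Rapid Gold BCA kit. Readings below 25 ug (0.1 mg/mL) are beneath the detection threshold.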

[2] = PET hydrolysis, aromatic products released after 48 h (umol product/mg enzyme); higher = more PET depolymerization activity
Method in brief: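 Amorphous PET film or crystalline PET powder (3.5 mg) in 450 μL of 50 mM NaCitrate (pH 4.5, 5.5), 50 mM NaPhosphate (pH 6.5, 7.5) or glycine (pH 8.5) received 5 μg (50 μL) of candidate enzyme. That enzyme was purified on nickel beads and freed of its tag by SUMO cleavage. After 48 h at 40 or 60 °C in sealed plates without shaking, absorbance of the supernatant at 260 and 280 nm was read against buffer blanks. PET hydrolysis activity is this aromatic product expressed per mg enzyme.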

[3] = melting temperature (DSF); higher = more thermostable
Method in brief: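 Candidate enzymes were expressed in E. coli C41(DE3), purified on nickel beads and released by SUMO protease cleavage. For differential scanning fluorimetry, 45 μL enzyme (0 to 0.3 mg/mL) was mixed with 5 μL 5X Sypro Orange in sealed PCR plates on a Bio-Rad CFX96 instrument. Fluorescence was read from 25 °C in steps of 0.3 °C per cycle (ramp 0.3 °C/s) for 250 cycles. The read-out is melting temperature.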

[4] = substrate: cryPow, 40 °C, pH 4.5
[5] = substrate: cryPow, 40 °C, pH 5.5
[6] = substrate: cryPow, 40 °C, pH 6.5
[7] = substrate: cryPow, 40 °C, pH 7.5
[8] = substrate: cryPow, 60 °C, pH 4.5
[9] = substrate: cryPow, 60 °C, pH 5.5
[10] = substrate: cryPow, 60 °C, pH 6.5
[11] = substrate: cryPow, 60 °C, pH 7.5
[12] = substrate: aFilm, 40 °C, pH 5.5
[13] = substrate: aFilm, 40 °C, pH 6.5
[14] = substrate: aFilm, 40 °C, pH 7.5
[15] = substrate: aFilm, 40 °C, pH 8.5
[16] = substrate: aFilm, 60 °C, pH 5.5
[17] = substrate: aFilm, 60 °C, pH 6.5
[18] = substrate: aFilm, 60 °C, pH 7.5
[19] = substrate: aFilm, 60 °C, pH 8.5
[20] = substrate: cryPow, 40 °C, pH 8.5
[21] = substrate: cryPow, 60 °C, pH 8.5

Sequence | purified protein yield per well [1] | PET hydrolysis [2, 4] | PET hydrolysis [2, 5] | PET hydrolysis [2, 6] | PET hydrolysis [2, 7] | PET hydrolysis [2, 8] | PET hydrolysis [2, 9] | PET hydrolysis [2, 10] | PET hydrolysis [2, 11] | melting temperature [3] | PET hydrolysis [2, 12] | PET hydrolysis [2, 13] | PET hydrolysis [2, 14] | PET hydrolysis [2, 15] | PET hydrolysis [2, 16] | PET hydrolysis [2, 17] | PET hydrolysis [2, 18] | PET hydrolysis [2, 19] | PET hydrolysis [2, 20] | PET hydrolysis [2, 21] | PET hydrolysis ([2]; substrate: aFilm, 40 °C, pH 4.5) | PET hydrolysis ([2]; substrate: aFilm, 60 °C, pH 4.5)
ENAIINGTYSLIVTQSGKALDTSQWGTIDGTNITLNDYWGGESQKFIITPVDGIWHRITPVIAPDQAFDVSKCSPNVGANIQTWSYEGGACQQFRFAETGNGTYQIITRGTDMSLNVNNLSEENDTNVMQSTSTGKENQIFTLRRHAESHISGNCPDGAICRDEEAPGLYDGKGPYNVRSYELPGAYVTLPATARVYYPANAEPPYSGIVFCPPFMTKQIAFAAWGPWFASHGMVLVTMDTTTIFDQVTARDNQQWRVVKALRRENTRLGSPLRGKLDTDKIGIMGWSMGGGASWINAGKHRDELKTVISLAGHNMTAWYNTDIYSWYSPEELLDAAYASGRLIKIPALIINGALDTTILGGLGQSDGVYRSISNTPKVLAVLGLAGHFAWGYPTQAGRGVASLVLAFEKTFLDGDTRWAPYIQKPSAPMRKWRTADLP [TEP050] | 60.6 µg | < 3 | < 3 | < 3 | < 3 | < 3 | < 3 | < 3 | < 3 | 46.3 C | – | – | – | – | – | – | – | – | – | – | – | –
ETEYRKGPDPTEATVTAALGPFATASVSVPSSVAGFGGGVIHYPTDTSQGTFGAVAVAPGFLGSSANYAWMGPRLASQGFVVFLINTDSRLDQPPSRGDQLLAALDYLVTSSSVRARIDASRLAVAGHSMGGGGTLEAATDRPGLQAAIPLQPWHTVKSWPNVQVPTLIIGAENDTTAPVASHAEPFYVSIPAAAEKAYLELNNAEHRVGTAGDTTQAKFMIVWLKRYVDNDTRYEQFICPPPPAPSSEIQEYRNTCPG [TEP171] | 59.3 µg | < 3 | < 3 | < 3 | < 3 | < 3 | < 3 | < 3 | < 3 | 44.2 C | – | – | – | – | – | – | – | – | – | – | – | –
FSAPGPSAPCSNCTRGPAPTVASLKASSGPFSTAKFSVSGYLKGFGNSTVYYPTNTSGKMGAIAVIPGYLSYESSIEWWGPRLASHGFVVMTMNTNSIYDQPDSRATQLSKALDYLISQSGSSSSPIYGKVDSSRLGAIGWSMGGGGSLKLSTQRSINAIIPQAPWYLGSNTFNTIKTPALILACSADTVAPVYQHASPFYNRIPTSTPKAFLEIYGGSHFCANSGYPNEDLLGMYGIAWMKRFIDFDSRYSQFLCGPNHESDYAISEYRQNCPY [ESM017] | 53.8 µg | < 3 | < 3 | 11 | 33 | – | – | – | – | 56.5 C | – | – | – | – | – | – | – | – | – | – | – | –
GETAQTTDVSAQSQFQRGPNPTVSSIEARTGHYRTSTTRVSSFASGFGGGTIYYPTTTSDGTFGGVAVAPGYTASSSTMDWLGPRIASQGFVVFVIDTNTRLDQPSSRGRQLLAALDYLTERSSERHRVDSNRLAVMGHSMGGGGALEATISRPSLKASIPLTPWNLTKNWSRVTTPTLIVGAENDSVASVRSHSIPFYTSLSSSTDRMYVELDGASHFAPNVSNTTIAKYSISWLKRFVDDDTRYDQFLCPLPNERAISDIRGNCPR [DP090] | 423 µg | – | < 3 | 7 | 12.5 ± 9.2 | – | < 3 | < 3 | 2 ± 2.8 | 51.4 C | < 3 | 5 ± 7.1 | 12 ± 7.1 | 22 ± 17 | < 3 | < 3 | < 3 | < 3 | 25.5 ± 0.71 | 2 ± 2.8 | – | –
GQAAVPVAVAGTSAFAKGPDPTEQSIQAQRGPFATAQRTVPSEAGRAFNRGTVHYPTDTSHGTYGAVVVSPGFFGPEFSVAWYGSTLASHGFVVLTLETNFLFDQPDARATQLLAGLDWLAARSPVKDRVDPNRLAVMGHSMGGGGTLIAASRNPALKAAIPLTPWNTSPDFSTVTVPTLVLGTDNDTVAPVARHADPMYASLRDKPDEGYVKLRGDHFTPIRYTAAATRFIVPWLKRYVDEDTRYSRFLCPLPAPDATLVSFELRCPV [DP040] | 28 µg | – | < 3 | 3 | < 3 | – | – | – | – | 40.3 C | – | – | – | – | – | – | – | – | < 3 | – | – | –
GQAPTTAAQVRASAFAKGPDPTEQTIKAQRGPFQIKQLSVAAQSGRGFNRGTIYYPTDTGQGTYGAIAVIPGFLEPEFITSWYGPTLASYGFVVMTLEPFAITDFPDPRSNQLLAAVDWLAADSPVKAQVDPNRLAVMGHSMGGGGALLAASKRPSLKAAVPLAPWNLYADFAGVTVPTLVIGADNDFIAPVGMHADPMYASIKASPNEGYLKLKNADHFTVNSYSATLTKFTVSWMKRYVDEDTRYTQFLCPAPQPDPSFASFQMTCPS [TEP173] | 293 µg | < 3 | < 3 | < 3 | < 3 | < 3 | < 3 | < 3 | < 3 | 41.2 C | < 3 | < 3 | < 3 | – | < 3 | < 3 | < 3 | – | – | – | < 3 | < 3
GRVMAASDSGTAADERVYAEPSVDPASVGSAGRNPYERGPEPTLASVAAEYGPFDTDQLTVPPGHGFNGGYIYYPTDTSQTFGAVAIVPGYTALFADEEAWMGPRLASFGFVVIGIETNSRDDWDIARGEQLLAALDYLVHHSPVRARIDANRLAVVGHSMGGGGALFAATQRPSLKAVVALAPYFPSGSLAAIRVPTMIIGGQDDTVVTPSYLDDLYASRPAHTPGAYLMLADADHLFATRPNTVEMRLLIPWLKIFVDHDTRYTQFLCPVADRSGIARHHVT [TEP126] | 166 µg | < 3 | < 3 | < 3 | < 3 | < 3 | < 3 | < 3 | < 3 | 55.9 C | – | – | – | – | – | – | – | – | – | – | – | –
GSLAHIVMVDAYKPTKGSGASQTNPYARGPNPTAASLEASAGPFTVRSFTVSRPSGYGAGTVYYPTNAGGTVGAIAIVPGYTARQSSIKWWGPRLASHGFVVITIDTNSTFDYPSSRSSQQMAALRQVASLNGDSSSPIYGKVDTARMGVMGHSMGGGASLRSAANNPSLKAAIPQAPWDSQTNFSSVTVPTLIFACENDSIAPVNSHALPIYDSMSRNAKQFLEINGGSHSCANSGNSNQALIGKKGVAWMKRFMDNDTRYSTFACENPNSTAVSDFRTANCSLEGSGGSGAHIVMVDAYKPTK [TEP004] | 77.2 µg | 4 | 33 | 62 | 69 | < 3 | 14 | 76 | 82 | 73.9 C | – | – | – | – | – | – | – | – | – | – | – | –
GTTASATTVSGTQAAAAQEYRRGPDPTAQSVEAATGPFAIQQTSVPAGNGFGGGTIYYPTDTSQGTFGAIAISPGWTEDQSAIAWLGPKLASNGFVVMTINNNNAFLDFPDARGTQLLAALDSLTGQSPVAGRIDKNRLAVAGHSMGGGGALRAAATRPEIQAAIPLTPWHLNQDWSSVRVPTLIVGGETDIIASVGAHSEPFYESLTNAPERAYLEMEGQGHFVTNSANPTVGRYVLSWLKRYVDNDTRYEQFLCPAPAPSSVISEYRDSCPGS [DP018] | 84 µg | – | < 3 | < 3 | < 3 | – | < 3 | < 3 | < 3 | 66.1 C | – | – | – | – | – | – | – | – | < 3 | < 3 | – | –
LFDNNGNKKQAYDATLSALNAGGTPVSPSPSVSPTAGPSPSTSPSPSPPPGDNPYQRGPDPTRDSVAANRGTFATAEMSVSPGNGFNGGSIYYPTDTSQGTFGAVAIVPGYTARFADEEAWMGHWLASFGFVVIGVETNSTNDFDTARGTQLLAALDWLTQSSPVRDRIDASRQSVIGHSMGGGGALHAAGNRSSLKAAVGLTPFMPSGTPANNQVPTLMIAGTNDTVVAPSYVTDLYNALPSSTERAYMEFVGADHLFPTRPNNLEMRILIPWLKTFVDSDSRYTQFLCPLMDSSGIAGYRNSCPLLPDQPTPPPTPTPSPTTPTPDPTTPGPGTCTATMSTGQVWGDRYNTSVTVTGTSNWTVVVAITPPQRISATWNGNPTWDSSGNVMTIRANGNGNVFGFTTMFNGNSWARPQIRSCTAG [DP081] | 244 µg | – | 7.5 ± 0.71 | 21 ± 2.8 | 14.5 ± 0.71 | – | < 3 | < 3 | < 3 | 57.1 C | < 3 | < 3 | < 3 | < 3 | < 3 | < 3 | < 3 | < 3 | 12.5 ± 2.1 | < 3 | – | –
LNPYQRGPNPTDAILEASSGPYATSSISVPSIVSGFGGGRIYYPTTTADGTFGGIAISPGFTATWSSLSWLGPRLASHGFVVIGIETNTIYDQPTSRGQQLLAALDYLVNTSSVRTRVDSSRLAVAGHSMGGGGTLWAANSRPSLQAAIPLAPWNTDKSWSGVRVPTLIVGGQSDTVAPVATHSIPFYTSIPAASEKAYLELRSASHFFPQTVNTTVAVSMVSWLKRYVDDDTRYDPWLCPGPSGLSVSDYRDTCPA [TEP178] | 64.5 µg | < 3 | 6 | 21 | 29 | < 3 | < 3 | 3 | 4 | 52 C | – | – | – | – | – | – | – | – | – | – | – | –
